# Reference: patent US20240409663A1 (CONCEPT TO MEDICINE BIOTECH, published 2024)
# Substitutions are numbered along the chain they refer to.
# B1: Hu 52H5D3B8-3 (antibody, V domains shown)
# VH: EVQLVQSGAEVKKPGASVKVSCKASGYTFTDYEMHWVRQAPGQGLEWMGAIHPGSGGTAYNQKFKGRVTMTRDTSISTAYMELSRLRSDDTAVYYCTRFYSYAYWGQGTLVTVSS
# VL: DVVMTQTPLSLSVTPGQPASISCRSSQSLVHSNGNTYLQWYLQKPGQSPQLLIYKVSNRFSGVPDRFSGSGSGTDFTLKISRVEAEDVGVYYCSQSIHVPYTFGGGTKVEIK
# notes: humanized 52H5D3B8; also called 52H5D3B8 VH1 + VL0
# B2: Hu 52H5D3B8-5 (antibody, V domains shown)
# VH: B1 VH with R72A
# VL: B1 VL
# notes: humanized 52H5D3B8; also called 52H5D3B8 VH2 + VL0
# B3: Hu 52H5D3B8-4 (antibody, V domains shown)
# VH: B1 VH
# VL: B1 VL with Y92F
# notes: humanized 52H5D3B8; also called 52H5D3B8 VH1 + VL1
# B4: Hu 52H5D3B8-1 (antibody, V domains shown)
# VH: B1 VH with T97A
# VL: B1 VL
# notes: humanized 52H5D3B8; also called 52H5D3B8 VH0 + VL0
# B5: 52H5D3B8-6#-VH2+VL1 (antibody, V domains shown)
# VH: B1 VH with E1Q, M48I, R72A, I76T, A79V, R85S, D89E, F99Y
# VL: B1 VL with V2I, S94F, V109L
# notes: humanized
# B6: 52H5D3B8-6#-VH2+VL4 (antibody, V domains shown)
# VH: B1 VH with E1Q, M48I, R72A, I76T, A79V, R85S, D89E, F99Y
# VL: B1 VL with V2I, Q50K, Y92F, S94F, V109L
# notes: humanized
# B7: 52H5D3B8-6#-VH3+VL2 (antibody, V domains shown)
# VH: QVQLVQSGAEVKKPGASVKVSCKALGYTFTDYEMHWVKQAPGQGLEWIGAIHPGSGGTAYNQKFKGRVTLTADTSTSTVYMELSSLRSEDTAVYYCTRYYSYAYWGQGTLVTVSS
# VL: B1 VL with V2I, Y92F, S94F, V109L
# notes: humanized
# B8: 52H5D3B8-6#-VH1+VL4 (antibody, V domains shown)
# VH: B7 VH with L25S, K38R, I48M, L70M, A72R, T97A
# VL: B1 VL with V2I, Q50K, Y92F, S94F, V109L
# notes: humanized
# B9: 52H5D3B8-6#-VH1+VL3 (antibody, V domains shown)
# VH: B7 VH with L25S, K38R, I48M, L70M, A72R, T97A
# VL: B1 VL with V2I, Q50K, S94F, V109L
# notes: humanized
# B10: 52H5D3B8-6#-VH1+VL2 (antibody, V domains shown)
# VH: B7 VH with L25S, K38R, I48M, L70M, A72R, T97A
# VL: B1 VL with V2I, Y92F, S94F, V109L
# notes: humanized
# B11: 52H5D3B8-6#-VH2+VL2 (antibody, V domains shown)
# VH: B7 VH with L25S, K38R, L70M
# VL: B1 VL with V2I, Y92F, S94F, V109L
# notes: humanized
# B12: 52H5D3B8-6#-VH3+VL1 (antibody, V domains shown)
# VH: B7 VH
# VL: B1 VL with V2I, S94F, V109L
# notes: humanized
# B13: 52H5D3B8-12# chimeric mAb (antibody, V domains shown)
# VH: QVQLQQSGAELVRPGASVKLSCKALGYTFTDYEMHWVKQTPVHGLEWIGAIHPGSGGTAYNQKFKGKATLTADKFSSTGYMELSSLTSEDSAVYYCTRYYSYAYWGQGTLVTVSA
# VL: DVVMTQTPLSLPVSLGDQASISCRSSQSLVHSNGNTYLQWYLQKPGQSPKLLIYKVSNRFSGVPDRFSGSGSGTDFILKISRVEAEDLGVYFCFQSTHVPYTFGGGTKLEIK
# notes: CDR3 mutant of the 52H5D3B8 chimeric mAb (human IgG1)
# B14: 52H5D3B8-15# chimeric mAb (antibody, V domains shown)
# VH: B13 VH with Y102F
# VL: B13 VL
# notes: as for B13
# B15: 52H5D3B8-14# chimeric mAb (antibody, V domains shown)
# VH: B13 VH with Y102F
# VL: B13 VL with T97I
# notes: as for B13
# B16: 52H5D3B8-13# chimeric mAb (antibody, V domains shown)
# VH: B13 VH with Y102F
# VL: B13 VL with F94S
# notes: as for B13
# Biological target: T1, human GPC3 on cells (human, UniProt P51654 25-554)
# T1 construct: whole, on cells; over-expressed on CHOK1 cells or endogenous on HEPG2, Hep3B and Huh-7 hepatocellular carcinoma cells; the cell line is named under assay; also called GPC3-CHOK1 cells; human GPC3 over-expressed CHOK1 cells
# Assay: FACS, Huh-7 cells
# Method: (§1) To evaluate the antigen binding property, the humanized antibodies were analyzed for their binding to human GPC3 over-expressed CHOK1 cells and Huh-7 cells by FACS. Briefly, GPC3-CHOK1 cells and Huh-7 cells were firstly incubated with Fc blocking reagent at 4° C. for 15 mins. Cells were washed by FACS buffer and divided to each well with 4-fold serially diluted humanized antibodies starting at 10 μg/mL at 4° C. for 60 mins. Cells were washed by FACS buffer and fixed with 2% PFA at RT for 15 mins. […] As different plates might affect the EC50 of 52H5D3B8-VH+VL, the 12 humanized antibodies were separated into two plates.
row,EC50 [µg/mL],Binder
1,0.0213,B1
2,0.0402,B2
3,0.0196,B3
4,0.0243,B4

# Biological target: T1, human GPC3 on cells
# Assay: FACS, Huh-7 cells
# Remark: another data set of the same source
# Method: as §1, with “CHOK1 cells, HEPG2 cells, Hep3B” for “CHOK1”, “GPC3-CHOK1 cells, HEPG2 cells, Hep3B” for “GPC3-CHOK1”, “The 16” for “As different plates might affect the EC50 of 52H5D3B8-VH+VL, the 12”
row,EC50 [µg/mL],Binder
1,0.0427,B5
2,0.0381,B6
3,0.0411,B7
4,0.0268,B8
5,0.0265,B9
6,0.0326,B10
7,0.0434,B11
8,0.0413,B12

# Biological target: T1, human GPC3 on cells
# Assay: FACS, GPC3-CHOK1 cells
# Method: as §1, with “CHOK1 cells, HEPG2 cells, Hep3B” for “CHOK1”, “GPC3-CHOK1 cells, HEPG2 cells, Hep3B” for “GPC3-CHOK1”, “The 16” for “As different plates might affect the EC50 of 52H5D3B8-VH+VL, the 12”
row,EC50 [µg/mL],Binder
1,0.0384,B5
2,0.041,B6
3,0.0429,B7
4,0.0308,B8
5,0.0341,B9
6,0.0388,B10
7,0.043,B11
8,0.0373,B12

# Biological target: T2, human GPC3-his tag protein (human, UniProt P51654 25-559, limits assumed)
# T2 construct: recombinant soluble antigen used as analyte in all Biacore runs; also called recombinant GPC3 protein; rhGPC3-His; not shown: His tag
# Assay: SPR Biacore 8K, mAb captured, affinity ranking
# Method: To evaluate antigen binding activity, the chimeric antibody's affinity was measured by Biacore 8K. A serial dilution of human GPC3-his tag protein was injected over captured chimeric antibody 52H5D3B8-6 #-VH+VL for 3 mins at a flow rate of 30 μl/min. The antigen was allowed to dissociate for 720 s. Among the multi detection doses, two concentrations with most close affinity to the chimeric antibody's affinity were chosen for the 16 humanized antibodies' affinity detection.
Kd [nM],koff [s⁻¹],kon [M⁻¹ s⁻¹],Binder
1.15,0.000742,646000,B5
0.994,0.000645,648000,B6
0.883,0.000587,664000,B7
1.74,0.000947,546000,B8
1.74,0.000975,561000,B9
2,0.00113,564000,B10
1.15,0.000749,651000,B11
0.838,0.000578,689000,B12

# Biological target: T1, human GPC3 on cells
# Assay: FACS, HEPG2 cells
# Method: as §1, with “CHOK1 cells, HEPG2 cells, Hep3B” for “CHOK1”, “GPC3-CHOK1 cells, HEPG2 cells, Hep3B” for “GPC3-CHOK1”, “The 16” for “As different plates might affect the EC50 of 52H5D3B8-VH+VL, the 12”
row,EC50 [µg/mL],Binder
1,0.0479,B5
2,0.0438,B6
3,0.0444,B7
4,0.0391,B8
5,0.0387,B9
6,0.043,B10
7,0.0481,B11
8,0.0471,B12

# Biological target: T1, human GPC3 on cells
# Assay: FACS, GPC3-CHOK1 cells
# Remark: another data set of the same source
# Method: as §1
row,EC50 [µg/mL],Binder
1,0.0387,B1
2,0.0544,B2
3,0.0324,B3
4,0.0404,B4

# Biological target: T2, human GPC3-his tag protein
# Assay: SPR Biacore 8K, mAb captured, affinity ranking
# Remark: another data set of the same source
# Method: To evaluate antigen binding activity, the chimeric antibody's affinity was measured by Biacore 8K. Two concentrations with most close affinity to the chimeric antibody's affinity were chosen for the 12 humanized antibodies' affinity detection. Human GPC3-his tag protein was injected over captured antibody for 3 mins at a flow rate of 30 μl/min. The antigen was allowed to dissociate for 720 s.
Kd [nM],koff [s⁻¹],kon [M⁻¹ s⁻¹],Binder
4.34,0.00176,405000,B1
2.87,0.000916,319000,B2
4.6,0.00164,357000,B3
6.33,0.00161,255000,B4

# Biological target: T2, human GPC3-his tag protein
# Assay: SPR Biacore 8K, mAb captured, one or two doses GPC3-his
# Method: The binding of the optimized antibodies of 52H5D3B8 mAb to human GPC3-his was tested with Biacore using a capture method. A single dose or two doses of human GPC3-his tag protein was injected over captured antibody. All the experiments were carried out on a Biacore 8K. Data analysis was carried out using Biacore 8K evaluation software.
Kd [nM],koff [s⁻¹],kon [M⁻¹ s⁻¹],Binder
5.56,0.00133,240000,B13
28.2,0.00755,267000,B14
1.53,0.000737,481000,B15
28.9,0.00143,49600,B16

# Biological target: T1, human GPC3 on cells
# Assay: FACS, GPC3-CHOK1 cells
# Remark: another data set of the same source
# Method: Briefly, GPC3-CHOK1 cells were firstly incubated with Fc blocking reagent at 4° C. for 15 mins. Cells were washed by FACS buffer and divided to each well with 3-fold serially diluted 52H5D3B8, 52H5D3B8-1 #, 52H5D3B8-2 #, 52H5D3B8-3 #, 52H5D3B8-4 #, 52H5D3B8-5 #, 52H5D3B8-6 #, 52H5D3B8-7 #, 52H5D3B8-8 #, 52H5D3B8-9 #, 52H5D3B8-10 #, 52H5D3B8-11 #, 52H5D3B8-12 #, 52H5D3B8-13 #, 52H5D3B8-14 # and 52H5D3B8-15# chimeric mAbs starting at 30 μg/mL at 4° C. for 60 mins. Cells were washed by FACS buffer and fixed with 2% PFA at RT for 15 mins. […] Samples were washed twice with FACS buffer.
row,EC50 [µg/mL],Binder
1,0.235,B13
2,0.15,B14
3,0.0895,B15
4,1.55,B16

# Biological target: T1, human GPC3 on cells
# Assay: FACS, Hep3B cells
# Method: as §1, with “CHOK1 cells, HEPG2 cells, Hep3B” for “CHOK1”, “GPC3-CHOK1 cells, HEPG2 cells, Hep3B” for “GPC3-CHOK1”, “The 16” for “As different plates might affect the EC50 of 52H5D3B8-VH+VL, the 12”
row,EC50 [µg/mL],Binder
1,0.0824,B5
2,0.0632,B6
3,0.0786,B7
4,0.0545,B8
5,0.0529,B9
6,0.0615,B10
7,0.0846,B11
8,0.0738,B12

# Biological target: T2, human GPC3-his tag protein
# Assay: SPR Biacore, mAb captured on CM5, GPC3-his dilution series (full kinetics)
# Method: The binding of the humanized antibodies to recombinant GPC3 protein (human GPC3-his tag) was tested by Biacore using a capture method. 52H5D3B8-6 #-V+VL, 52H5D3B8-6 #-VH1+VL1, 52H5D3B8-6 #-VH1+VL3, 52H5D3B8-6 #-V1+VL4, 52H5D3B8-6 #-VH2+VL4, 52H5D3B8-6 #-VH3+VL1, 52H5D3B8-6 #-VH3+VL3 mAbs were captured using CM5 sensor chip. A serial dilution of human GPC3-his tag protein was injected over captured antibody for 2 mins at a flow rate of […]. The antigen was allowed to dissociate for 360 s. All the experiments were carried out on a Biacore T200.
Kd [nM],koff [s⁻¹],kon [M⁻¹ s⁻¹],Binder
1.12,0.000669,599000,B6
1.85,0.000984,532000,B8
1.76,0.000872,494000,B9
1,0.000579,579000,B12
